According to patent publication US20250262210A1 (TRUSTEES OF COLUMBIA UNIVERSITY IN THE CITY OF NEW YORK, published 2025):

Key:
Experiment in all cases: IP/MS, LZTR1 R810W-FLAG, U87
[1] = molecular target: T1, SREBF2 (human, UniProt Q12772 1-1141, limits assumed)
T1 sequence (looked up): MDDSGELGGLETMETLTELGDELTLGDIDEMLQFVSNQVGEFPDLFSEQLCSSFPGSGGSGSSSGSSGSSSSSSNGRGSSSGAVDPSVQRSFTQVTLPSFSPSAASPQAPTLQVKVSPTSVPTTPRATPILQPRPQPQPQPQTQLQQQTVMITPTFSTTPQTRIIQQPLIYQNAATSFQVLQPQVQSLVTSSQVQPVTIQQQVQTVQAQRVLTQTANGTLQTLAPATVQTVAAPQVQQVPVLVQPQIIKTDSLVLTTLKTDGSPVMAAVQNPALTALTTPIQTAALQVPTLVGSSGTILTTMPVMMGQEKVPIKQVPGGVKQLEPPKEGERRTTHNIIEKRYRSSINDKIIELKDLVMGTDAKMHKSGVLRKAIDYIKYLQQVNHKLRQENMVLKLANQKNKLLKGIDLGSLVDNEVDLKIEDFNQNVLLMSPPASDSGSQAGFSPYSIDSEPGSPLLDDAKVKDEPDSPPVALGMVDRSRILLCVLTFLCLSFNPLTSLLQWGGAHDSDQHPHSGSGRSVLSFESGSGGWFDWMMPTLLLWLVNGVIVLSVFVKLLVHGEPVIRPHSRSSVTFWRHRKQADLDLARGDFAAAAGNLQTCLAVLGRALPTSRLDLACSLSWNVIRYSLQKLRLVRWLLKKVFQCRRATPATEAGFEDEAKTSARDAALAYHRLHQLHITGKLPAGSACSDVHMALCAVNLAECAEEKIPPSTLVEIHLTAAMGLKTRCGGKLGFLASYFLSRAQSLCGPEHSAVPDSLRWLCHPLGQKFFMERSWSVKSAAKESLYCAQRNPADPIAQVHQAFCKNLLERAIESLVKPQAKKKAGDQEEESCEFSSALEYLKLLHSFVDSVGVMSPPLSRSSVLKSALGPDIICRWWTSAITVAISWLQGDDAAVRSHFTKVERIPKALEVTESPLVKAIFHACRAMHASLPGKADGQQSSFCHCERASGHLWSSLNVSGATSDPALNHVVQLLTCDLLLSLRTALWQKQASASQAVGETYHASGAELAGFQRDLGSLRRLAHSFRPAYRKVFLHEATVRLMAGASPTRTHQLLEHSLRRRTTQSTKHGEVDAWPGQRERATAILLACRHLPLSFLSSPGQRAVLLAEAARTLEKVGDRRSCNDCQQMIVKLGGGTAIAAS
How it was run: (§1)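 Extracted peptides in 3% acetonitrile/0.1% formic acid ran on a 50 cm C18 column into an Orbitrap Fusion, with MaxQuant identification and spectral counting.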

[2] = molecular target: CA9 (human, UniProt Q16790 38-459)
How it was run: as §1

[3] = molecular target: T2, LONP2 (human, UniProt Q86WA8 2-852, limits assumed)
T2 sequence (looked up): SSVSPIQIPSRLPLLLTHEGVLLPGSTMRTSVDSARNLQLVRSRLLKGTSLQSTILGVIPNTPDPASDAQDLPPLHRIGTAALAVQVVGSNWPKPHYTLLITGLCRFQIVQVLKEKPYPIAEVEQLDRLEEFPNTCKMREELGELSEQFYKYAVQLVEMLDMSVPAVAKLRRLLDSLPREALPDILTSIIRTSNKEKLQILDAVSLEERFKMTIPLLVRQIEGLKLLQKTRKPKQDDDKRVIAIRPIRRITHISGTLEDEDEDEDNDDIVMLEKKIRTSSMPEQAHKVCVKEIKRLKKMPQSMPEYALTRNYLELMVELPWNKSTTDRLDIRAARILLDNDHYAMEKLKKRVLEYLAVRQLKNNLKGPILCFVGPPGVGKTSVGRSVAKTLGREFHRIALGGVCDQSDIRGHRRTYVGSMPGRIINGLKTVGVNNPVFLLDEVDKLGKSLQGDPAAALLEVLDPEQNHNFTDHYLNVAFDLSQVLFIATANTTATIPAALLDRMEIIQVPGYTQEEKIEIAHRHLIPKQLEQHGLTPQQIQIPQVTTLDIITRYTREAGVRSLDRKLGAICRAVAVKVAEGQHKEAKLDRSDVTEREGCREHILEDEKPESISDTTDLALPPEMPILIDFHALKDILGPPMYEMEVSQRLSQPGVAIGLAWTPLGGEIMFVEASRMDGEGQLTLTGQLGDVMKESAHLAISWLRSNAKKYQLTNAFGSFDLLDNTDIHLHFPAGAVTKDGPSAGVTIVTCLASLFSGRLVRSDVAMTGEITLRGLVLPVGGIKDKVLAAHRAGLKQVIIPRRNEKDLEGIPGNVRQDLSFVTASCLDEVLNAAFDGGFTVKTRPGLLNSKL
How it was run: as §1

Measured: binding result

B1: LZTR1 R810W-FLAG (other, human, UniProt Q8N653 1-840, looked up)
chain: MAGPGSTGGQIGAAALAGGARSKVAPSVDFDHSCSDSVEYLTLNFGPFETVHRWRRLPPCDEFVGARRSKHTVVAYKDAIYVFGGDNGKTMLNDLLRFDVKDCSWCRAFTTGTPPAPRYHHSAVVYGSSMFVFGGYTGDIYSNSNLKNKNDLFEYKFATGQWTEWKIEGRLPVARSAHGATVYSDKLWIFAGYDGNARLNDMWTIGLQDRELTCWEEVAQSGEIPPSCCNFPVAVCRDKMFVFSGQSGAKITNNLFQFEFKDKTWTRIPTEHLLRGSPPPPQRRYGHTMVAFDRHLYVFGGAADNTLPNELHCYDVDFQTWEVVQPSSDSEVGGAEVPERACASEEVPTLTYEERVGFKKSRDVFGLDFGTTSAKQPTQPASELPSGRLFHAAAVISDAMYIFGGTVDNNIRSGEMYRFQFSCYPKCTLHEDYGRLWESRQFCDVEFVLGEKEECVQGHVAIVTARSRWLRRKITQARERLAQKLEQEAAPVPREAPGVAAGGARPPLLHVAIREAEARPFEVLMQFLYTDKIKYPRKGHVEDVLLIMDVYKLALSFQLCRLEQLCRQYIEASVDLQNVLVVCESAARLQLSQLKEHCLNFVVKESHFNQVIMMKEFERLSSPLIVEIVRRKQQPPPRTPLDQPVDIGTSLIQDMKAYLEGAGAEFCDITLLLDGHPRPAHKAILAARSSYFEAMFRSFMPEDGQVNISIGEMVPSRQAFESMLRYIYYGEVNMPPEDSLYLFAAPYYYGFYNNRLQAYCKQNLEMNVTVQNVLQILEAADKTQALDMKRHCLHIIVHQFTKVSKLPTLWSLSQQLLLDIIDSLASHISDKQCAELGADI
notes: Stably expressed in U87 cells by lentivirus; also called LZTR1-FLAG-R810W; LZTR1 RW; not shown: FLAG tag
binds: [1] | [2] | [3]
